Experimental data from US20140186371A1 (published 2014).
One block for each molecule: values may come before it.

Legend:
human iC3b [1] = target: T1, human iC3b (human, UniProt P01024 23-667; P01024 749-1303; P01024 1321-1663); experiment: sandwich ELISA: chicken anti-C3 capture antibody on the plate, iC3b captured, A209 as detecting antibody, goat anti-mouse-HRP, ABTS
T1 construct: Bought purified protein; three chains held together by disulfide bonds; also called purified human iC3b (Complement Technology #A115)
T1 sequence (P01024 23-667 limits assumed, chain 1 of 3): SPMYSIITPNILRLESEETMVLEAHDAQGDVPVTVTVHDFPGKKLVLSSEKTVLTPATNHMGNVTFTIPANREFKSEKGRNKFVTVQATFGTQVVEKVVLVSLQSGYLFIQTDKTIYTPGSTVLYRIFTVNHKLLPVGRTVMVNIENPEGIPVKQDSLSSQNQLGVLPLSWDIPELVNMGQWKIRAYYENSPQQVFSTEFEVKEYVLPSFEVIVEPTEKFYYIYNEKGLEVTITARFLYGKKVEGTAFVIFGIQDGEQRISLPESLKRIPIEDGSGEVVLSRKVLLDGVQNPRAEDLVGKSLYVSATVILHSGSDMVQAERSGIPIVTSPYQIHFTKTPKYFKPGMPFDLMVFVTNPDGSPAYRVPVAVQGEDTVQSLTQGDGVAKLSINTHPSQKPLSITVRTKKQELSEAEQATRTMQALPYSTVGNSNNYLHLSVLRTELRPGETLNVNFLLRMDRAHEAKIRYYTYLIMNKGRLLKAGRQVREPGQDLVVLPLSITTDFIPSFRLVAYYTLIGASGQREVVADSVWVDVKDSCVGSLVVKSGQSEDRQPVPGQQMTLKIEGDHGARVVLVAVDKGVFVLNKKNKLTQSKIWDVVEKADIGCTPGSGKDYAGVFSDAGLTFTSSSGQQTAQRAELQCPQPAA
T1 sequence (P01024 749-1303 limits assumed, chain 2 of 3): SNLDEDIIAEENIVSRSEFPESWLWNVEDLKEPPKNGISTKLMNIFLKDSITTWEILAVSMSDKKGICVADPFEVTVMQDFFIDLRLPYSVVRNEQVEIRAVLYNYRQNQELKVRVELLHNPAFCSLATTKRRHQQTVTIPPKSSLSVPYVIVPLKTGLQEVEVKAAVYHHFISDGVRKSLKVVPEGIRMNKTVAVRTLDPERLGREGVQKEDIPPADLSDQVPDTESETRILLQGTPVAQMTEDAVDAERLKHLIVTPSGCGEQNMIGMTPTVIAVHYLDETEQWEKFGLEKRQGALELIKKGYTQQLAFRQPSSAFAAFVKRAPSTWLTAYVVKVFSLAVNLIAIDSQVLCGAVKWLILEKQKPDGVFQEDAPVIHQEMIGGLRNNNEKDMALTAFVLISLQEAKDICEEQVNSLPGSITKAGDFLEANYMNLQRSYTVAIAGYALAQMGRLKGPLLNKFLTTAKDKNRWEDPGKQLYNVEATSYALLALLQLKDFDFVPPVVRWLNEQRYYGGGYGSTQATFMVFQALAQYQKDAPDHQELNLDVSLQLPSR
T1 sequence (P01024 1321-1663 limits assumed, chain 3 of 3): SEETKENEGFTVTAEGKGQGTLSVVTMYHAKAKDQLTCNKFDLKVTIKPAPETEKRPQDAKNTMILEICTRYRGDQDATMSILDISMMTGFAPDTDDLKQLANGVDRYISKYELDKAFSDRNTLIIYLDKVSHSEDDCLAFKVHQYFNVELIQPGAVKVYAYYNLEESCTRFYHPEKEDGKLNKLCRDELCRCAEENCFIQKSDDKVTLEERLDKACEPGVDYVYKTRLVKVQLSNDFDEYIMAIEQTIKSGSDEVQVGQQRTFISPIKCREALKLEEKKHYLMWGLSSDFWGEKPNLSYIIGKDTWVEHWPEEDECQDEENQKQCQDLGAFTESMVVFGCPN

human iC3b [2] = target: T1, human iC3b; experiment: Biacore, antibody captured on anti-mouse CM5 chip
human iC3b [3] = target: T1, human iC3b; experiment: Biacore, antibody captured on anti-mouse CM5 chip, antigen in solution
human C3 = target: T2, human C3 (human, UniProt P01024 23-667; P01024 672-1663); experiment: as above
T2 construct: Bought purified protein; also called C3 (Complement Technology #A113)
T2 sequence (P01024 23-667, chain 1 of 2): as the sequence (P01024 23-667 limits assumed, chain 1 of 3) above
T2 sequence (P01024 672-1663, chain 2 of 2): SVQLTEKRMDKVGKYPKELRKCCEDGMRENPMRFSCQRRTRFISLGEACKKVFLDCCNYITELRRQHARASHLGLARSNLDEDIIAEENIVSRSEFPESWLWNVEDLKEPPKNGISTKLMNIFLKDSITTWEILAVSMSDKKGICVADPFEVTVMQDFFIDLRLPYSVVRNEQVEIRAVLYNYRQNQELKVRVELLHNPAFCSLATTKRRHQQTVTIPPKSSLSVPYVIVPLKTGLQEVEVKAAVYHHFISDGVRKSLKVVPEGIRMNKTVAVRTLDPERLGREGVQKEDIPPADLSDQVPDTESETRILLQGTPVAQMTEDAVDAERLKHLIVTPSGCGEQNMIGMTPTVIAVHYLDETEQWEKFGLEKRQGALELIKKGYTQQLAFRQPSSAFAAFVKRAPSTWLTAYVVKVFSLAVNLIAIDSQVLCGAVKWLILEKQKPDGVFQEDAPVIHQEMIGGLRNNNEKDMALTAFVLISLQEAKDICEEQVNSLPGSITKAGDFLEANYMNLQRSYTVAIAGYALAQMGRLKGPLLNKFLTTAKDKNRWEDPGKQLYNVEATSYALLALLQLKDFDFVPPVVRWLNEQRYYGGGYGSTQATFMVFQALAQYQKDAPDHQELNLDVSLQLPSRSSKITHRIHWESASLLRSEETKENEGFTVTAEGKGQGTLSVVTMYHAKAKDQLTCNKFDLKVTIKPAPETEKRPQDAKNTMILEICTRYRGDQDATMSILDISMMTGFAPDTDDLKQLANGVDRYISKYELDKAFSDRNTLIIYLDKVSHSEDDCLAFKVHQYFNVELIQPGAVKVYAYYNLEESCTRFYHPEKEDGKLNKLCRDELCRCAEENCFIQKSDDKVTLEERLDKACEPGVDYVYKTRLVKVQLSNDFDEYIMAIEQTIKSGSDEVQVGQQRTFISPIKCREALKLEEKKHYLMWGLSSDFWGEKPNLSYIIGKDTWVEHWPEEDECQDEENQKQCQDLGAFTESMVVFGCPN

human iC3b [4] = target: T1, human iC3b; experiment: sandwich ELISA; reference C3b
human iC3b [5] = target: T1, human iC3b; experiment: Biacore (SPR); reference C3b
human iC3b [6] = target: T1, human iC3b; experiment: sandwich ELISA, antigen captured by chicken anti-C3 antibody

EC50 (read off the curve) (human iC3b [1]): 0.03 µg/mL
Molecule: A209 antibody (Quidel)

fold difference in KD, iC3b relative to C3 (human iC3b [2]): > 10 fold
Kd (human iC3b [3]): 43.3 nM
Kd (human C3): 2100 nM
fold higher affinity constant for iC3b than C3b (human iC3b [4]): ≥ 2 fold
fold higher affinity constant for iC3b than C3b (human iC3b [5]): ≥ 10 fold
fold specificity for iC3b vs. C3 or C3b (human iC3b [6]): > 2 fold
B1: mouse monoclonal antibody 6G1 (antibody, V domains shown)
VH: QIQLVQSGPELKKPGETVKISCKASGYTFTNYGMNWVKQAPGKDLKWMGWINTYTGEPRYADEFKGRFAFSLETSASTAYLQINNLKNEDMATYFCAKGGYPHYYSMDYWGQGTSVTVSS
VL: DIQMTQSTSSLSASLGDRVTISCRASQDINNYLNWYQQKPDGTIKLLIYYTSKLHSGVPSRFSGSGSGRDYSLTISNLEQEDIATYFCQQGNTLPRTFGGGTKLEIKR

fold higher affinity constant for iC3b than C3b (human iC3b [4]): ≥ 2 fold
fold higher affinity constant for iC3b than C3b (human iC3b [5]): ≥ 10 fold
fold specificity for iC3b vs. C3 or C3b (human iC3b [6]): > 2 fold
B2: mouse monoclonal antibody 5D2 (antibody, V domains shown)
VH: EVQLQQSGPELVKPGASVKISCKASGYTFTDNYYMNWVKQSHGKSLEWIGHIYPNNGVTSYNQKFRGKATLTVDKSSNSAYMELRSLTSEDSALYYCARNKLLSLYWYFDVWGTGTSVTVSS
VL: DIQMTQSSSSFSVFLGDRITITCRASVDIYNRLAWFQQKPGNAPRLLISGATSLATGVPSRFSGSGSGKDYTLSITSLQTEDVTIYYCQQYWSTPWTFGGGTKLEIKR
